Data as given in paper PMC9416875, “Structural basis for non-canonical integrin engagement by Bordetella adenylate cyclase toxin” (Cell reports, 2022).

Biological target: RTX751 (Bordetella pertussis adenylate cyclase toxin, ACT, residues 751-1,706) (Bordetella pertussis, UniProt P0DKX7)
Test: […], room temperature 20 min; […]; 20 mM Tris pH 7.5, 150 mM NaCl, 1 mM CaCl2, 1 mM MgCl2; […]
Conditions: both partners purified

B1: M1F5 Fab (anti-ACT RTX domain antibody M1F5) (Fab, V domains shown)
VH: QVQLKQSGPELVKPGASVRMSCKGSGYSFTFHNIHWVKQRPGQGLEWIGWIYPGDGNTKYNEKFKGKTTLTVDKSSNTAYMLLSSLTSEDSAIYFCAYGNYYFDQWGQGTTLTVSS
VL: IQMMQSTSSLSASLGDRVTISCSASQGITNYLNWYQQKPDGTVKLLIYYTSSLHSGVPSRFSGSGSGTDYSLTISNLEPEDIATYYCQQYSNLPWTFGGGTKLEIK
notes: also called M1F5 antibody; M1F5 IgG
- stoichiometry N: 1
